Reference: paper PMC2229230
Like-named read-outs stand apart in the source and are kept apart here.

What was measured:
endo-Gly0-gramicidin C [1] = test: single-channel recording in planar lipid bilayers
endo-Gly0-gramicidin C [2] = test: single-channel recording in planar lipid bilayers; remark: listed apart in the source

average channel duration tau (dimer lifetime, 1/k-1) (endo-Gly0-gramicidin C [1]): 862 ms
average channel duration tau (dimer lifetime, 1/k-1) (endo-Gly0-gramicidin C [2]): 410 ms
Substance: endo-Gly0-gramicidin C (peptide)
